# In article PMC6303017, “Effects of RNA structure and salt concentration on the affinity and kinetics of interactions between pentatricopeptide repeat proteins and their RNA ligands”:
# T1: HCF152 (UniProt Q9SF38 66-778)
# T1 sequence: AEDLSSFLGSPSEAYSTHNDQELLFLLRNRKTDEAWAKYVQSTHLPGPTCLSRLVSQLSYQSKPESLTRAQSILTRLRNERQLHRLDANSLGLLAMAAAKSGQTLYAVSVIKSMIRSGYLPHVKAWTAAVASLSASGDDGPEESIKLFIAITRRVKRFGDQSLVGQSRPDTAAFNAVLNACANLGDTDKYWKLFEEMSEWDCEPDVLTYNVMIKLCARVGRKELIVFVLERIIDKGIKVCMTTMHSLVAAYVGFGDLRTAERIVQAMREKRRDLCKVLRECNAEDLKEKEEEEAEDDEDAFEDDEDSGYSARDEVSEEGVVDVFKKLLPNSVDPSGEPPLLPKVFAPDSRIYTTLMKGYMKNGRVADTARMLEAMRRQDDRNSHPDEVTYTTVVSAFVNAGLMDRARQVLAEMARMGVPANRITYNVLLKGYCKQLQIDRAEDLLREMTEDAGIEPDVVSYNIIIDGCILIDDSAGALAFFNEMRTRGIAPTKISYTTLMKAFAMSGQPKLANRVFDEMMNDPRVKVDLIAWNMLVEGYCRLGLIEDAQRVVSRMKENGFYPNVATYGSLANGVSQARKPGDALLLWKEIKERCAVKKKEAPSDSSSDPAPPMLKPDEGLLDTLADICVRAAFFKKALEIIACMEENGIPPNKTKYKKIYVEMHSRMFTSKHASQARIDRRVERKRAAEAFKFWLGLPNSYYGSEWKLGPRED
# T2: PPR10 (UniProt B8Y6I0 96-786)
# T2 sequence: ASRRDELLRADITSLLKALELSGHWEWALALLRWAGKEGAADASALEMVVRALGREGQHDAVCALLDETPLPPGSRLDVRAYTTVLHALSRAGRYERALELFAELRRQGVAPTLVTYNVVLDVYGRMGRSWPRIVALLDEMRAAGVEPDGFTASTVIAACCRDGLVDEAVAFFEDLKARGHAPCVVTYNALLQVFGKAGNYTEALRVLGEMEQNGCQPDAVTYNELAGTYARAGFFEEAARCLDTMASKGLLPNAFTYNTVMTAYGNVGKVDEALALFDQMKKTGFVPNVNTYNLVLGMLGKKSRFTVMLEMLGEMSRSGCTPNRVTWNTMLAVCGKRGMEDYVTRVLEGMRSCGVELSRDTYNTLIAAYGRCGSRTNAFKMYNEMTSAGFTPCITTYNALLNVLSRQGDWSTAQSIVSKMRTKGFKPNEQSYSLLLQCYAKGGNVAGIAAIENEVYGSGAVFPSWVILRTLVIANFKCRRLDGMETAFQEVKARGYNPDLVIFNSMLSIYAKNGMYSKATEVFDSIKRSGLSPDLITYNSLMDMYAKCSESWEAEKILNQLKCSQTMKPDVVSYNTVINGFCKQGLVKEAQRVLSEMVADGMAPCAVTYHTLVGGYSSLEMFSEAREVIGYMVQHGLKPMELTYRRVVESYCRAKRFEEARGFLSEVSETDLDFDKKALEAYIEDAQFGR
# Columns and labels:
# HCF152 [1] = molecular target: T1, HCF152; test: SPR; 150 mM NaCl; half-life ~2 h; KD ~30-fold lower than earlier EMSA; EMSA: 40 mM Tris-HCl pH 7.5, 140 mM NaCl, 10% glycerol, 4 mM DTT, 0.1 mg/mL BSA, 0.5 mg/mL heparin, RNAsin, 5 pM RNA, 25 C, 30 min; SPR: 100 mM HEPES pH 7.5, 150 mM NaCl, 3 mM EDTA, 1 mM 2-mercaptoethanol, 0.005% P20; conditions: protein: recombinant; tags: MBP fusion, MBP cleaved off; label: 3' biotin, 6-carbon linker
# PPR10 [2] = molecular target: T2, PPR10; test: SPR; 150 mM NaCl; ka ~2e7 M-1s-1; EMSA: 40 mM Tris-HCl pH 7.5, 140 mM NaCl, 10% glycerol, 4 mM DTT, 0.1 mg/mL BSA, 0.5 mg/mL heparin, RNAsin, 5 pM RNA, 25 C, 30 min; SPR: 100 mM HEPES pH 7.5, 150 mM NaCl, 3 mM EDTA, 1 mM 2-mercaptoethanol, 0.005% P20; conditions: protein: recombinant; tags: MBP fusion, MBP cleaved off; label: 3' biotin, 6-carbon linker; unstructured
# PPR10 [3] = molecular target: T2, PPR10; test: EMSA; 0.5 mg/mL heparin, 140 mM NaCl; EMSA: 40 mM Tris-HCl pH 7.5, 140 mM NaCl, 10% glycerol, 4 mM DTT, 0.1 mg/mL BSA, 0.5 mg/mL heparin, RNAsin, 5 pM RNA, 25 C, 30 min; SPR: 100 mM HEPES pH 7.5, 150 mM NaCl, 3 mM EDTA, 1 mM 2-mercaptoethanol, 0.005% P20; conditions: protein: recombinant; tags: MBP fusion, MBP cleaved off; label: 5' 32P; unstructured
# HCF152 [4] = molecular target: T1, HCF152; test: filter binding; 30 min and overnight (~13 h); tighter apparent KD overnight; EMSA: 40 mM Tris-HCl pH 7.5, 140 mM NaCl, 10% glycerol, 4 mM DTT, 0.1 mg/mL BSA, 0.5 mg/mL heparin, RNAsin, 5 pM RNA, 25 C, 30 min; SPR: 100 mM HEPES pH 7.5, 150 mM NaCl, 3 mM EDTA, 1 mM 2-mercaptoethanol, 0.005% P20; conditions: protein: recombinant; tags: MBP fusion, MBP cleaved off; label: 5' 32P
binder,measurement,setting,value
UGGUAGUUCGACGUGGAUUUU (ssRNA) [petB SPR RNA],binding result,HCF152 [1],binds
GAUUGUAUCCUUAACCAUUUCUUUU (ssRNA) [atpH SPR RNA],Kd,PPR10 [2],~0.01 nM
AUUGUAUCCUUAACCAUUUCUUU (ssRNA) [atpH-23mer],Kd,PPR10 [3],~0.05 nM
GGUAGUUCGACCGUGGA (ssRNA) [petB RNA (GMS/FB)],binding result,HCF152 [4],binds
